B1: TCN-531 (5091_H13) (antibody, V domains shown)
VH: EVQLVESGGDLVQPGRSLKLSCTGSGFTFGDYGVTWVRQAPGKGLEWVGFIRTRPWGGTADTAASVKGRFTISRDDSKSLAYLQMNSLKTEDTAVYYCCRDAPPNVEVASMTNWYFDLWGRGTLVTVSS
VL: DIQLTQSPSSLSASVGDRVTITCRASQGILNCLAWYQQKPGKVPNLLMYAASTLQSGVPSRFSGSGFGTDFTLTISSLQPEDVATYYCQTYGGVSTFGGGTKVEIR
B2: TCN-504 (3251_K17) (antibody, V domains shown)
VH: QVQLQESGPGLVKPSETLSLTCAVSGVSISNIDFYWGWIRQPPGKGLEWIGNIYYTGITFYNPSLSSRVAISIDTSKNQFSLTLTSVTAADTAMYYCARHYGDSEAINDAFDIWGQGTMLTVSS
VL: EIVMTQSPATLSVSPGERATLSCRASQSVGNSLAWYQQRPGQAPRLLIYGASTRATGIPPRFSGSGSGTEFTLTISSLQTEDFAVYYCQQYINWRPLSFGGGTKVEIK
B3: TCN-523 (5248_A17) (antibody, V domains shown)
VH: QVQLVQSGAEVKKPGSSVKVSCKASGGSFSNYAFSWVRQAPGQGLEWMGGTIPLLGTTNYAQKFQGRVTISADQFTSTAYMELGSLRSEDTAVYYCTRRKMTTAFDSWGQGTLVTVSS
VL: QPVLTQPPSASASLGASVTLTCTLSSAYSNYKVDWYQQRPGKGPRFVMRVGTGGIVGSKGDGIPDRFSVLGSGLNRYLTIKNIQEEDESDYHCGADHGSGSNFVSPYVFGGGTKLTVL
B4: TCN-530 (5248_H10a) (antibody, V domains shown)
VH: QVQLVQSGAEVRKPGSSVKVSCKASGGPFMSYAIGWVRQAPGQGLEWMGGINPVFGRPHYAQKFQGRVTIATDDSTKTSYMELSSLTSEDTGMYYCASRYSRSSPGTFESWGQGTLVTVSS
VL: EIVMTQFPATLSVSPGERVTLSCRASQSVSNNLAWYQQKPGQPPRLLIYDASTRATGVPAKFSGTGSGTEFTLSISSLQSEDFAVYYCQQYHNWPPSYSFGLGTKLEIK
B5: TCN-535 (5246_P19) (antibody, V domains shown)
VH: QVQLVQSGSEVKKPGTSVKVSCTASGSVFTNYGISWVRQAPGQGLEWMGGIIPLFGAAKYAQKFQGRVTITADESTKTVYMELSRLTSKDTAIYFCAKAPRVYEYYFDQWGQGTPVTVSS
VL: EIVLTQSPGTLSLSPGERATLSCRASQSVSSSQLAWYQQKPGQAPRLIIYGASTRATGIPDRFSGSGSGTDFTLTIGRLEPEDFAVFFCQQYSTSPPTFGQGTKVDFK
B6: TCN-540 (5060_F05) (antibody, V domains shown)
VH: QVQLVQSGGGVVQPGRSLRLSCAASGFTFSSYAMHWVRQAPGKGLEWVAIISYDGNDQYYTDSVKGRFTISRDSSKVYLQMHRLRPEDTAVYYCAKEFETSGYFHGSFDYWGQGILVTVSS
VL: QSALTQPASVSGSPGQSITISCTGTSSDVGGYNYVSWYQQHPGKAPKLLIYEVTNWPSGVSNRFSGSKSGNTASLTISGLQAEDEADYYCSSYAGSSTWVFGGGTRVTVL
B7: TCN-538 (3206_O17) (antibody, V domains shown)
VH: QITLKESGPTLVKPTQTLTLTCVFSGFSLSITGVRVGWIRQPPGKALEWLALISWDDEKHYSPSLQSRLTITKDTSKNQVVLTMTNLDPVDTATYYCARSTDRGHVLRYFGWMLPGDAFDVWGQGTMVTVSS
VL: DIVMTQSPDFLPVSLGERATINCKSSQRVLYSSNNKNYLAWYQLKPGQPPKLIIYWASTRESGVPDRFSGSGSGTEFTLTISSLQAEDVAVYYCQQYYSRPYTFGQGTKLEIK
B8: TCN-545 (5082_I15) (antibody, V domains shown)
VH: QVQLQQWGAGLLKPSETLSLSCAVFGGSFSDYYWTWIRQPPGKGLEWIGEIKHSGRTNYNPSLESRVTISVDTSKNQFSLKLSSVTAADTAIYYCARGTDPDTEGYCRSGSCSAFDFWGQGTLVTVSS
VL: EIVLTQSPGTLSLSPGERATLSCRASHFVNYRSLAWYQQTPGQVPRLLIYGASTRATGIPDRFSGSGSGTDFTLTISRLEPEDFAVYFCQQYGGSPRYTFGQGTRLEIK
B9: TCN-534 (5249_B02) (antibody, V domains shown)
VH: QVQLVQSGAEVKKPGSSVKVSCRESGGTFNGYTITWVRQAPGQGLEWMGGIIPMMGTVNYAQKLQGRVTITTDYFTKTAYMDLNNLRSEDTAMYYCVKIRYTGQQLLWGQGTLVTVSS
VL: DIQMTQSPSTLSASIGDRVTITCRASQSIASWLAWYQQKPGKAPKLLIYEAVNLESGVPSRFSGSGSGTDFTLTISSLQPDDFATYFCQHYGTISQTFGGGTKVEIK
B10: TCN-546 (5089_L08) (antibody, V domains shown)
VH: QVQLQQWGAGLLKPSETLSLTCGVYGGSLSDYYWSWIRQPPGKGLEWIGEINHSGGTNYNPSLKRRVTISVDTSKKQFSLKMNSVTAADTAVYYCARGTDPDTEVYCRAGNCAAFDFWGQGTLVTVSS
VL: EIVLTQSPGTLSLSPGERATLSCRASHFVIGRAVAWYQQKPGQAPRLLIYGASSRATGIPDRFSGSGSGTDFTLTISRLETEDFAVFYCQHYGSSPRYAFGQGTKLEIK
B11: TCN-537 (3194_D21) (antibody, V domains shown)
VH: QVQLQQWGSGLLKPSETLSLTCAVYGGSFRDDYWTWIRQPPGKGLEWIGEINHSGRTNYNPSLKSRVTISVDTSLKQFSLKVISVTAADTAVYYCARGTSHVSRYFDWLPPTNWFDPWGQGTQVTVSS
VL: DIVLTQSPGTLSLSPGERATLSCRASQSVSSSYLAWYQQKPGQAPRLVMYGAATRATGIPDRFSGSGSGPDFTLTISRLEPEDFAMYYCQQYGNSPITFGQGTRLEIK
B12: TCN-536 (5095_N01) (antibody, V domains shown)
VH: QVQLQQWGAGLLKPSETLSLTCAVYGGSFSVSGYYWSWIRQPPGRGLEWIGEISHGGSTNYNPSLKSRVTISVDTTKNQFSLRLSSVTAADTAVYYCARGTDPDTEVYCRVGNCAAFDYWGQGSLVTVSS
VL: EIILAQSPGTLSLSPGERATLSCRASQFVSTRSLAWYQQRPGQAPRLLIYGASSRATGIPDRFSGSGSGTDFTLTISRLEPEDFAVYYCQHYGYSPRYAFGQGSKVEIK
B13: TCN-563 (5237_B21) (antibody, V domains shown)
VH: QVQLAQSGAEVKRPGSSVKVSCTASGGIFRKNAISWVRQAPGQGLEWMGGIIAVFNTANYAQKFQGRVKITADESGNTAYMELSSLRSDDTAVYYCASHPKYFYGSGSYPDFWGQGTLVTVSS
VL: QSALTQPRSVSGSPGQSVTISCTGSSSDVGASNSVSWYQQHPGKAPKLVIYDVTERPSGVPHRFSGSKSGNTASLTVSGLQPEDEADYFCCAYGGKYLVVFGGGTKVTVL
B14: TCN-564 (5256_A17b) (antibody, V domains shown)
VH: QVQLVQSGADVKKPGSSVTVSCKASGGSFSNYGINWVRQAPGQGLEWMGGIIPLINAPNYAPKFQGRVTITADMFSNIVSLQLTSLRTDDTAVYYCARRKMTTAIDYWGQGTLVTVSS
VL: QPVLSQPPSASASLGASVTLTCTLSSGFDNYQVAWYQQRPGKGPRFVMRVGNGGNVASKGDGIPDRFSVSGSGLNRYLTIKNIQEDDESDYYCGADHGSGNNFVSPYVFGGGTKLTVL

These binders were tested against T1, recombinant soluble homotrimeric HA of A/common magpie/Hong Kong/5052/07 (H5N1) (Influenza A virus A/common magpie/Hong Kong/5052/2007(H5N1)) (assay: trimeric HA microarray, transfection supernatant set 3). Details: remark: other sources report otherwise.

Row | Binder | Trimeric HA Binding: RLU [RLU]
1 | B1 | 37
2 | B2 | 17800
3 | B3 | 640
4 | B4 | 5580

Each binder was assayed against recombinant homotrimeric HA A/common magpie/Hong Kong/5052/07 H5N1 (Influenza A virus A/common magpie/Hong Kong/5052/2007(H5N1)) (assay: protein microarray, purified IgG, trimeric HA). Details: remark: other sources report otherwise.

Row | Binder | Trimeric HA Binding: RLU [RLU]
5 | B1 | 674
6 | B5 | 20400
7 | B6 | 799
8 | B7 | 5140
9 | B8 | 804
10 | B9 | 16500
11 | B3 | 20900
12 | B10 | 810
13 | B4 | 10300
14 | B11 | 810
15 | B12 | 794

The binders below were run against T1, recombinant soluble homotrimeric HA of … (assay: trimeric HA microarray, transfection supernatant set 5). Details: remark: other sources report otherwise.

Row | Binder | Trimeric HA Binding: RLU [RLU]
16 | B6 | 1800
17 | B7 | 3140
18 | B8 | 1390
19 | B10 | 1920
20 | B11 | 2070

These binders were tested against T1, recombinant soluble homotrimeric HA of … (assay: trimeric HA microarray, transfection supernatant set 2). Details: remark: other sources report otherwise.

Row | Binder | Trimeric HA Binding: RLU [RLU]
21 | B13 | 52800
22 | B2 | 16800
23 | B3 | 7210

These binders were tested against T1, recombinant soluble homotrimeric HA of … (assay: trimeric HA microarray, transfection supernatant set 4). Details: remark: other sources report otherwise.

Row | Binder | Trimeric HA Binding: RLU [RLU]
24 | B5 | 477
25 | B2 | 8680
26 | B9 | 127
27 | B3 | 2130
28 | B12 | 27

Each binder was assayed against T1, recombinant soluble homotrimeric HA of … (assay: HA microarray, BCC supernatant). Details: remark: other sources report otherwise.

Row | Binder | Trimeric HA Binding: RLU [RLU]
29 | B5 | 45900
30 | B13 | 27500
31 | B6 | 113
32 | B7 | 18700
33 | B9 | 32500
34 | B3 | 45800
35 | B4 | 42500
36 | B11 | 18700

These binders were tested against T1, recombinant soluble homotrimeric HA of … (assay: not given). Details: remark: other sources report otherwise.

Row | Binder | Trimeric HA Binding: RLU [RLU]
37 | B14 | 20800
38 | B13 | 20000

What follows are binders tested against T1, recombinant soluble homotrimeric HA of … (assay: trimeric HA microarray, transfection supernatant set 1). Details: remark: other sources report otherwise.

Row | Binder | Trimeric HA Binding: RLU [RLU]
39 | B2 | 29700
40 | B3 | 6240

The binders below were run against recombinant soluble homotrimeric HA, A/common magpie/Hong Kong/5052/07 H5N1 (Influenza A virus A/common magpie/Hong Kong/5052/2007(H5N1)) (assay: microarray, transfection SN IgG, trimeric HA). Details: remark: other sources report otherwise.

Row | Binder | Trimeric HA Binding: RLU [RLU]
41 | B2 | 37300
42 | B3 | 33900

These binders were tested against T1, recombinant soluble homotrimeric HA of … (assay: HA microarray, control antibody). Details: remark: other sources report otherwise.

Row | Binder | Trimeric HA Binding: RLU [RLU]
43 | B2 | 17000
